Measured values published in US20140221622A1.
pIC50: −log10 of the molar value.

Target: biotin-labeled cMet (UniProt P08581)
Test: indirect ELISA: antibody captured on anti-IgG Fc coated plate, biotin-labeled cMet detected with streptavidin-HRP, OD450; fit value of a flat control curve, unit taken from the axis

Sequence of biotin-labeled cMet (P08581 25-932 limits assumed): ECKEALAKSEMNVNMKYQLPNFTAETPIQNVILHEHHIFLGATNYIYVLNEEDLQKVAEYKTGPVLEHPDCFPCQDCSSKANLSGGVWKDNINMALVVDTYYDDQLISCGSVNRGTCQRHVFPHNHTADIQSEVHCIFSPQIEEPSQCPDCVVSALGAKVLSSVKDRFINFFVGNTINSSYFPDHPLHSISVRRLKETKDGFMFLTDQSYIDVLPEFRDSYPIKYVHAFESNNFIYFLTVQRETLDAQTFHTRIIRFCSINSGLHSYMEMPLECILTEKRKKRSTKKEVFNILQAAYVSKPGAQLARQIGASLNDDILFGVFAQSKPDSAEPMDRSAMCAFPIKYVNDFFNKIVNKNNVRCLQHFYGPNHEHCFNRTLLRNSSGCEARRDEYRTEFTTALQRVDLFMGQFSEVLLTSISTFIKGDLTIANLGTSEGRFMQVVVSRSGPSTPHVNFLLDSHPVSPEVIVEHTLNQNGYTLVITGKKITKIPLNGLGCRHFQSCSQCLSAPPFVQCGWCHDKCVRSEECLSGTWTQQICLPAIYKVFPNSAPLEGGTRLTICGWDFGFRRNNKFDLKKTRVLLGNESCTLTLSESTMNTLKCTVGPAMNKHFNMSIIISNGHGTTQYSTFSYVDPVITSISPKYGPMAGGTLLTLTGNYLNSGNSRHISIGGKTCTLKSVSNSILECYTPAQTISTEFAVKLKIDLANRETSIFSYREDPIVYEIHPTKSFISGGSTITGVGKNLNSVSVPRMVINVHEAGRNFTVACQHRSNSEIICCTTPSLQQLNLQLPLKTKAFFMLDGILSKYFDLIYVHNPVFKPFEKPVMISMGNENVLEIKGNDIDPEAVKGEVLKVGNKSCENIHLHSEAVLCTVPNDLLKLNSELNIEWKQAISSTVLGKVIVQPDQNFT

pIC50: 8.96
Substance: IL-1β (antibody)
